Data as given in PMC6193622, “Identification of UHRF2 as a novel DNA interstrand crosslink sensor protein” (PLoS Genetics, 2018).

B1: 6xHis-UHRF2 purified from Sf9 cells (natural protein, human, UniProt Q96PU4 1-802, looked up)
chain: MWIQVRTIDGSKTCTIEDVSRKATIEELRERVWALFDVRPECQRLFYRGKQLENGYTLFDYDVGLNDIIQLLVRPDPDHLPGTSTQIEAKPCSNSPPKVKKAPRVGPSNQPSTSARARLIDPGFGIYKVNELVDARDVGLGAWFEAHIHSVTRASDGQSRGKTPLKNGSSCKRTNGNIKHKSKENTNKLDSVPSTSNSDCVAADEDVIYHIQYDEYPESGTLEMNVKDLRPRARTILKWNELNVGDVVMVNYNVESPGQRGFWFDAEITTLKTISRTKKELRVKIFLGGSEGTLNDCKIISVDEIFKIERPGAHPLSFADGKFLRRNDPECDLCGGDPEKKCHSCSCRVCGGKHEPNMQLLCDECNVAYHIYCLNPPLDKVPEEEYWYCPSCKTDSSEVVKAGERLKMSKKKAKMPSASTESRRDWGRGMACVGRTRECTIVPSNHYGPIPGIPVGSTWRFRVQVSEAGVHRPHVGGIHGRSNDGAYSLVLAGGFADEVDRGDEFTYTGSGGKNLAGNKRIGAPSADQTLTNMNRALALNCDAPLDDKIGAESRNWRAGKPVRVIRSFKGRKISKYAPEEGNRYDGIYKVVKYWPEISSSHGFLVWRYLLRRDDVEPAPWTSEGIERSRRLCLRLQYPAGYPSDKEGKKPKGQSKKQPSGTTKRPISDDDCPSASKVYKASDSAEAIEAFQLTPQQQHLIREDCQNQKLWDEVLSHLVEGPNFLKKLEQSFMCVCCQELVYQPVTTECFHNVCKDCLQRSFKAQVFSCPACRHDLGQNYIMIPNEILQTLLDLFFPGYSKGR
notes: UHRF2, human; also called 6xHis-tagged UHRF2; source: Sf9, purified
B2: Flag-UHRF1 with the UBL domain deleted (natural protein, human, UniProt Q96T88-2 1-806, looked up)
chain: MGVFAVPPLSSDTLPHSTKERDSELSDTDSGCCLGQSESDKSSTHGEAAAETDSRPADEDMWDETELGLYKVNEYVDARDTNMGAWFEAQVVRVTRKAPSRDEPCSSTSRPALEEDVIYHVKYDDYPENGVVQMNSRDVRARARTIIKWQDLEVGQVVMLNYNPDNPKERGFWYDAEISRKRETRTARELYANVVLGDDSLNDCRIIFVDEVFKIERPGEGSPMVDNPMRRKSGPSCKHCKDDVNRLCRVCACHLCGGRQDPDKQLMCDECDMAFHIYCLDPPLSSVPSEDEWYCPECRNDASEVVLAGERLRESKKKAKMASATSSSQRDWGKGMACVGRTKECTIVPSNHYGPIPGIPVGTMWRFRVQVSESGVHRPHVAGIHGRSNDGAYSLVLAGGYEDDVDHGNFFTYTGSGGRDLSGNKRTAEQSCDQKLTNTNRALALNCFAPINDQEGAEAKDWRSGKPVRVVRNVKGGKNSKYAPAEGNRYDGIYKVVKYWPEKGKSGFLVWRYLLRRDDDEPGPWTKEGKDRIKKLGLTMQYPEGYLEALANREREKENSKREEEEQQEGGFASPRTGKGKWKRKSAGGGPSRAGSPRRTSKKTKVEPYSLTAQQSSLIREDKSNAKLWNEVLASLKDRPASGSPFQLFLSKVEETFQCICCQELVFRPITTVCQHNVCKDCLDRSFRAQVFSCPACRYDLGRSYAMQVNQPLQTVLNQLFPGYGNGR
notes: UHRF1, human, amino acids 14-91 (UBL domain) deleted; also called UHRF1 UBL deletion mutant; source: Sf9, purified
B3: Flag-UHRF1 wild type purified from Sf9 cells (natural protein, human, UniProt Q96T88-2 1-806, looked up)
chain: MGVFAVPPLSSDTMWIQVRTMDGRQTHTVDSLSRLTKVEELRRKIQELFHVEPGLQRLFYRGKQMEDGHTLFDYEVRLNDTIQLLVRQSLVLPHSTKERDSELSDTDSGCCLGQSESDKSSTHGEAAAETDSRPADEDMWDETELGLYKVNEYVDARDTNMGAWFEAQVVRVTRKAPSRDEPCSSTSRPALEEDVIYHVKYDDYPENGVVQMNSRDVRARARTIIKWQDLEVGQVVMLNYNPDNPKERGFWYDAEISRKRETRTARELYANVVLGDDSLNDCRIIFVDEVFKIERPGEGSPMVDNPMRRKSGPSCKHCKDDVNRLCRVCACHLCGGRQDPDKQLMCDECDMAFHIYCLDPPLSSVPSEDEWYCPECRNDASEVVLAGERLRESKKKAKMASATSSSQRDWGKGMACVGRTKECTIVPSNHYGPIPGIPVGTMWRFRVQVSESGVHRPHVAGIHGRSNDGAYSLVLAGGYEDDVDHGNFFTYTGSGGRDLSGNKRTAEQSCDQKLTNTNRALALNCFAPINDQEGAEAKDWRSGKPVRVVRNVKGGKNSKYAPAEGNRYDGIYKVVKYWPEKGKSGFLVWRYLLRRDDDEPGPWTKEGKDRIKKLGLTMQYPEGYLEALANREREKENSKREEEEQQEGGFASPRTGKGKWKRKSAGGGPSRAGSPRRTSKKTKVEPYSLTAQQSSLIREDKSNAKLWNEVLASLKDRPASGSPFQLFLSKVEETFQCICCQELVFRPITTVCQHNVCKDCLDRSFRAQVFSCPACRYDLGRSYAMQVNQPLQTVLNQLFPGYGNGR
notes: UHRF1, human, wild type; the deletion limits printed for its mutants run to residue 806, so the 806-residue isoform is meant; also called wild type UHRF1; Flag-tagged wild type UHRF1; source: Sf9, purified
B4: Flag-UHRF1 with the TTD domain deleted (natural protein, human, UniProt Q96T88-2 1-806, looked up)
chain: MGVFAVPPLSSDTMWIQVRTMDGRQTHTVDSLSRLTKVEELRRKIQELFHVEPGLQRLFYRGKQMEDGHTLFDYEVRLNDTIQLLVRQSLVLPHSTKERDSELSDTDSGCCLGQSESDKSSTHGEAAAETDSRPADEDMWDETELGEGSPMVDNPMRRKSGPSCKHCKDDVNRLCRVCACHLCGGRQDPDKQLMCDECDMAFHIYCLDPPLSSVPSEDEWYCPECRNDASEVVLAGERLRESKKKAKMASATSSSQRDWGKGMACVGRTKECTIVPSNHYGPIPGIPVGTMWRFRVQVSESGVHRPHVAGIHGRSNDGAYSLVLAGGYEDDVDHGNFFTYTGSGGRDLSGNKRTAEQSCDQKLTNTNRALALNCFAPINDQEGAEAKDWRSGKPVRVVRNVKGGKNSKYAPAEGNRYDGIYKVVKYWPEKGKSGFLVWRYLLRRDDDEPGPWTKEGKDRIKKLGLTMQYPEGYLEALANREREKENSKREEEEQQEGGFASPRTGKGKWKRKSAGGGPSRAGSPRRTSKKTKVEPYSLTAQQSSLIREDKSNAKLWNEVLASLKDRPASGSPFQLFLSKVEETFQCICCQELVFRPITTVCQHNVCKDCLDRSFRAQVFSCPACRYDLGRSYAMQVNQPLQTVLNQLFPGYGNGR
notes: UHRF1, human, amino acids 146-296 (TTD domain) deleted; also called UHRF1 TTD deletion mutant; source: Sf9, purified
B5: Flag-UHRF1 with the PHD domain deleted (natural protein, human, UniProt Q96T88-2 1-806, looked up)
chain: MGVFAVPPLSSDTMWIQVRTMDGRQTHTVDSLSRLTKVEELRRKIQELFHVEPGLQRLFYRGKQMEDGHTLFDYEVRLNDTIQLLVRQSLVLPHSTKERDSELSDTDSGCCLGQSESDKSSTHGEAAAETDSRPADEDMWDETELGLYKVNEYVDARDTNMGAWFEAQVVRVTRKAPSRDEPCSSTSRPALEEDVIYHVKYDDYPENGVVQMNSRDVRARARTIIKWQDLEVGQVVMLNYNPDNPKERGFWYDAEISRKRETRTARELYANVVLGDDSLNDCRIIFVDEVFKIERPGEGSPMVDNPMRRKSGPSCKHCKDDVASEVVLAGERLRESKKKAKMASATSSSQRDWGKGMACVGRTKECTIVPSNHYGPIPGIPVGTMWRFRVQVSESGVHRPHVAGIHGRSNDGAYSLVLAGGYEDDVDHGNFFTYTGSGGRDLSGNKRTAEQSCDQKLTNTNRALALNCFAPINDQEGAEAKDWRSGKPVRVVRNVKGGKNSKYAPAEGNRYDGIYKVVKYWPEKGKSGFLVWRYLLRRDDDEPGPWTKEGKDRIKKLGLTMQYPEGYLEALANREREKENSKREEEEQQEGGFASPRTGKGKWKRKSAGGGPSRAGSPRRTSKKTKVEPYSLTAQQSSLIREDKSNAKLWNEVLASLKDRPASGSPFQLFLSKVEETFQCICCQELVFRPITTVCQHNVCKDCLDRSFRAQVFSCPACRYDLGRSYAMQVNQPLQTVLNQLFPGYGNGR
notes: UHRF1, human, amino acids 323-379 (PHD domain) deleted; also called UHRF1 PHD deletion mutant; source: Sf9, purified
B6: Flag-UHRF1 with the RING domain deleted (natural protein, human, UniProt Q96T88-2 1-806, looked up)
chain: MGVFAVPPLSSDTMWIQVRTMDGRQTHTVDSLSRLTKVEELRRKIQELFHVEPGLQRLFYRGKQMEDGHTLFDYEVRLNDTIQLLVRQSLVLPHSTKERDSELSDTDSGCCLGQSESDKSSTHGEAAAETDSRPADEDMWDETELGLYKVNEYVDARDTNMGAWFEAQVVRVTRKAPSRDEPCSSTSRPALEEDVIYHVKYDDYPENGVVQMNSRDVRARARTIIKWQDLEVGQVVMLNYNPDNPKERGFWYDAEISRKRETRTARELYANVVLGDDSLNDCRIIFVDEVFKIERPGEGSPMVDNPMRRKSGPSCKHCKDDVNRLCRVCACHLCGGRQDPDKQLMCDECDMAFHIYCLDPPLSSVPSEDEWYCPECRNDASEVVLAGERLRESKKKAKMASATSSSQRDWGKGMACVGRTKECTIVPSNHYGPIPGIPVGTMWRFRVQVSESGVHRPHVAGIHGRSNDGAYSLVLAGGYEDDVDHGNFFTYTGSGGRDLSGNKRTAEQSCDQKLTNTNRALALNCFAPINDQEGAEAKDWRSGKPVRVVRNVKGGKNSKYAPAEGNRYDGIYKVVKYWPEKGKSGFLVWRYLLRRDDDEPGPWTKEGKDRIKKLGLTMQYPEGYLEALANREREKENSKREEEEQQEGGFASPRTGKGKWKRKSAGGGPSRAGSPRRTSKKTKVEPYSLTAQQSSLIREDKSNAKLWNEVLASLKDRPASGSPFQL
notes: UHRF1, human, amino acids 727-806 (RING domain) deleted; also called UHRF1 RING deletion mutant; source: Sf9, purified

Target: B3
Test: co-IP; in vitro binding assay of purified recombinant proteins from Sf9 cells; His-UHRF2 was immunoprecipitated, immunoblotting
Details: both partners purified

Binding result, binds:
B1

Target: T1, Flag-HA-FANCD2 purified from Sf9 cells (human, UniProt Q9BXW9 1-1451)
T1 construct: FANCD2, human, full-length form; also called Flag-HA-tagged FANCD2; source: Sf9, purified (M2 anti-Flag agarose, Flag peptide elution); not shown: Flag, N-terminal, kept; HA, N-terminal, kept
T1 sequence (Q9BXW9 whole entry): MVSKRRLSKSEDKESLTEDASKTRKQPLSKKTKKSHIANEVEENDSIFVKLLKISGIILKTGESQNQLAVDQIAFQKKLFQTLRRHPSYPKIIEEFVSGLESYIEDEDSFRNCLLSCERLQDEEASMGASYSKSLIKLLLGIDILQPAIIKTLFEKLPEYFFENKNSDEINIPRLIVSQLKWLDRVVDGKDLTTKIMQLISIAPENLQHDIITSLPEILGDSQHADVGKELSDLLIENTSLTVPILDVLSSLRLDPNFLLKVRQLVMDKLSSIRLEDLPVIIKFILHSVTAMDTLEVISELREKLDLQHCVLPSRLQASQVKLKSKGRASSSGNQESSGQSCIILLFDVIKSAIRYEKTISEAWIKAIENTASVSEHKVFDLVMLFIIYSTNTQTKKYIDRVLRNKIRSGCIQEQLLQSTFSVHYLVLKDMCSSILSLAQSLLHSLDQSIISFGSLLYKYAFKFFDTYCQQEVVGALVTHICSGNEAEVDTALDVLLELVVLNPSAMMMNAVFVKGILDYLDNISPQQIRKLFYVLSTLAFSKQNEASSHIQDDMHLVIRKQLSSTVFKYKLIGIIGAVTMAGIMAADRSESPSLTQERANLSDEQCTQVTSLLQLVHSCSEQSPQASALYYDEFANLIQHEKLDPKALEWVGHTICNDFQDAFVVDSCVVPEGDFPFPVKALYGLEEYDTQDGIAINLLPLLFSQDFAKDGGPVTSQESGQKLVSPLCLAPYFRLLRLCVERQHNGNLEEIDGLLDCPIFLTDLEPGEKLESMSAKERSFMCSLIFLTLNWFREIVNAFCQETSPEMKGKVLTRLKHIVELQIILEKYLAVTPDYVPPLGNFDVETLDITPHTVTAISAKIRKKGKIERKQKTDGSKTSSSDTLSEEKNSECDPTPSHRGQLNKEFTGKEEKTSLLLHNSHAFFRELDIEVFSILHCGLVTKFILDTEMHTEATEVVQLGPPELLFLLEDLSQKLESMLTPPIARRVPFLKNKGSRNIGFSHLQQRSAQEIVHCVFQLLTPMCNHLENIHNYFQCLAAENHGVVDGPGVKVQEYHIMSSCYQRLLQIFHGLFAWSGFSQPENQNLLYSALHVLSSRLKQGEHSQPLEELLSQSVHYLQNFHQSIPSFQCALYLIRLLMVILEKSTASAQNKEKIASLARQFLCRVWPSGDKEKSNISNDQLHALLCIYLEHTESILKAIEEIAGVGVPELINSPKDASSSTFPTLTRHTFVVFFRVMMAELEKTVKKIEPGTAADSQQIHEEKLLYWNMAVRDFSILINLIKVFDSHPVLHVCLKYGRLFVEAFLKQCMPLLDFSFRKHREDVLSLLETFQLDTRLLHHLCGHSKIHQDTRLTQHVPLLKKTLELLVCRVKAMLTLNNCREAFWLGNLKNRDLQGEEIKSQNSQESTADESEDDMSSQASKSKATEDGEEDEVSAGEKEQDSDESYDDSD
Test: co-IP; in vitro binding assay: 1μg of each protein with 10μg BSA in 20mM Tris-HCl pH 8.0, 150mM KCl, 10% glycerol, 2mM β-ME, 10μl, 37°C 1h; HA-FANCD2 immunoprecipitated on protein A sepharose with anti-HA IgG at 4°C, washed with 0.1% Tween-20, eluted with HA peptide; immunoblotting
Details: both partners purified

Binding result, binds:
B2
B3
B4
B1
B5
B6
